# Data: the nanobody polyreactivity screen of Harvey et al. (2022)
# Test: yeast display, Sf9 membrane polyspecificity reagent, FACS + sequencing; frameworks hold sequencing errors
# How it was run: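 Galactose-induced (36–48 hours) yeast carrying a synthetic nanobody display library were exposed to 10% biotinylated, detergent-solubilized Sf9 membrane reagent at 4 °C for 1 hour. FACS followed streptavidin microbead enrichment, using low and high (top ~1%) gates for expression (anti-HA) and reagent binding (streptavidin). Colony PCR, MiSeq 2 × 250 sequencing and CDR-length filtering followed. Labels for polyreactivity reflect the gate of origin.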
row,Sequence,polyreactivity (PSR sort gate)
1,QVQLVESGGGLVQAGGSLRISCAASGLTFQYNAMGWYRQAPGKERELVAAISSSGGSTYYADSVKGRFTISRDNAKNTVYLQMNSLKPEDTAVYYCNAYSQSWNFYGDGDYWVQGTQVTVSS,low polyreactivity
2,QVQLVESGGGLVQAGGSLRISCAASGNTVNDYTMGWYRQEPGKERELVAAIRSGGRTYYADSVKGRFTISRDNAKNTVYLQMNSLKPEDTAVYYCAALAVTYRYDYWGQGTQVTVSS,high polyreactivity
3,QVQLVESGGGLVQAGGSLRISCAASGRIFARNAMGSYRQAPGKERELVATIRVGGGSTYYADSVTGRFTISRDNAKNTVYLQMNSLKPEDTSVYYCAVRQLYSYPGDRRGYYWGQGTQVTVSS,low polyreactivity
4,QVQLVESGGGLVQAGGSLRISCAASGRIFRVNGMGWSRQEPGKESELVAAIRRSGGSTYYADSVKGRFTISRDYAKKSVYLQMNSLKPEDTAVYFCAAAVRQSSYTRYDSWGQGTQVTVSS,high polyreactivity
5,QVQLVESGGGLVQAGGSLRISCAASGRIFSGYAMGWYRQAPGKERELVAAITSGGSTNYADSVKGRFTISRDNAKNTVYLQMNSLKPEDTAVYYCAADSREVSTTAYYYWGQGTQVTVSS,low polyreactivity
6,QVQLVESGGGLVQAGGSLRISCAASGRILARNAMGWYRQAPGKERDLVATITWTDGSTYYADSVKGRFTISRDNAKNTVYLQMNSLKPEDTAVYYCDADLPGYWLPTVPKNYGDYWGQGTQVTVSS,low polyreactivity
7,QVQLVESGGGLVQAGGSLRISCAASGRTFARYAMGWYRQAPGKERELVAAISRSGSTYYADSVKGRFTISRDNAKNTVYLQMNSLKPEDTAVYFCAKDTRFAGSYKYYYWGQGTQVTVSS,high polyreactivity
8,QVQLVESGGGLVQAGGSLRISCAASGRTFGRYAMEWYRQAPGKERELVAAISWSGGSTYYADSVKGRFTISRDNAKNTVYLQMNSLKPEATAVYYCAAVTTDGVYAFDYWGQGTQVTVSS,low polyreactivity
9,QVQLVESGGGLVQAGGSLRISCAASGRTFLSNAMGWYRQAPGKERELVAAISNGDNTYYADSVKGRFTISRDNAKNTVYLQMNSLKPEDTAVYYCAADQYWSWIYYPVVEYDYWGQGTQVTVSS,low polyreactivity
10,QVQLVESGGGLVQAGGSLRISCAASGRTFWYYAKGWDRQAPGKEREFVAAISWSGGSTYYADSVKGRFTISRDNAKNTVYLQMNSLKPEDTAVSYCAADRYDSSQFYYWGQGTQVTVSS,low polyreactivity
11,QVQLVESGGGLVQAGGSLRISCAASGRTFYSYAMGWYRQAPGKERELVAAITWRASTYYADSVKGRFTISRDNAKNTVYLQMNSLKPEDTAVYYCAVRDYRPRYYTFLYNSPYDYWGQGTQVTVSS,high polyreactivity
12,QVQLVESGGGLVQAGGSLRISCAASGRTFYYYAMGWYRQAPGKEREFVARITSSGGSTSYADSVKGRFTISRDNAKNTVYLQMNSLKPEDTAVYYFNAVSTYTSDDYDYWGQGSQVTVSS,high polyreactivity
13,QVQLVESGGGLVQAGGSLRISCAASGRTFYYYVMGWYRQAPGKERELVAAISRGGRTYYADSVKGRFTISRDYAKNTVYLQMNSLKPEDTAVYSCNAVPRKSRHRYDYWGQGTQVTVSS,high polyreactivity
14,QVQLVESGGGLVQAGGSLRISCAASGRTLFNKARGRYRQAPGKERELVAAINWSGTSTYYADSVKGRFTISRDNAKNTVYLQMNSLKPEDTAVYYCAARYSTVSTRRKPYNYWGQGTQVTVSS,high polyreactivity
15,QVQLVESGGGLVQAGGSLRISCAASGRTLGAYALGWSRQAPGKERELVAVISRRGGSTYYADSVKGRFTISRVNAKNTVYLQMNSLKPEDSAVYYCARTTLLYRTLSPGEYWGQGTQVTVSS,high polyreactivity
16,QVQLVESGGGLVQAGGSLRISCAASGSICYYYGMGWYRQAPGKERELVAGISSRGGRTYYADSVKGRFTISRDNAKNTVYLQMNSLKPEDTAVYYGAADRYYYAYRYDPSGYWGQGTQVTVSS,low polyreactivity
